Five compounds from PMC6559208, “Phylogeny‐guided characterization of glycosyltransferases for epothilone glycosylation” (Microbial Biotechnology, 2019) can be followed below.

For series [1], the system named is C/C(=C\c1csc(C)n1)[C@@H]1C[C@@H]2O[C@@H]2CCC[C@H](C)[C@H](O)[C@@H](C)C(=O)C(C)(C)[C@@H](O)CC(=O)O1. As to the kind of experiment: UPLC-PDA glycosylation assay, Michaelis-Menten fit. Type of series: biochemical, Bacillus atrophaeus. To be noted: 10 mM UDP-glucose, 10 mM MgCl2, Tris-HCl pH 7.5, 37 °C, 10 min. The text has this:
UPLC-PDA glycosylation assay, Michaelis-Menten fit on BaGT

Series [2] shares this test system. In words: UPLC-PDA glycosylation assay, Michaelis-Menten fit. Type of series: biochemical, Bacillus velezensis. To be noted: 10 mM UDP-glucose, 10 mM MgCl2, Tris-HCl pH 7.5, 37 °C, 10 min. The text has this: UPLC-PDA glycosylation assay, Michaelis-Menten fit on BamGT
The test system is the same in series [3]. As to the kind of experiment: UPLC-PDA glycosylation assay, Michaelis-Menten fit. The class given is biochemical, Bacillus subtilis. The following applies: 10 mM UDP-glucose, 10 mM MgCl2, Tris-HCl pH 7.5, 37 °C, 10 min. The text has this:
UPLC-PDA glycosylation assay, Michaelis-Menten fit on YojK

For series [4] the test system is unchanged. As to the kind of experiment: UPLC-PDA glycosylation assay, Michaelis-Menten fit. Type of series: biochemical, Bacillus licheniformis. The following applies: 10 mM UDP-glucose, 10 mM MgCl2, Tris-HCl pH 7.5, 37 °C, 10 min. The text has this: UPLC-PDA glycosylation assay, Michaelis-Menten fit on YjiC
The next series concerns T1, BssGT.
T1 construct: synthetic gene in pET28a, His tag, E. coli BL21(DE3), nickel-purified
As to the kind of experiment: UPLC-PDA glycosylation assay, Michaelis-Menten fit. The following applies: 10 mM UDP-glucose, 10 mM MgCl2, Tris-HCl pH 7.5, 37 °C, 10 min; read-out: Acceptor substrate (epothilone A) / K m. Type of series: biochemical, Bacillus inaquosorum. The text has this: UPLC-PDA glycosylation assay, Michaelis-Menten fit on BssGT

The target of the next series is T2, BsGT-2 (Bacillus subtilis, UniProt O05496).
T2 construct: gene ydhE; synthetic gene in pET28a, His tag, E. coli BL21(DE3), nickel-purified
In words: LC-MS conversion assay. Type of series: biochemical. The following applies: assay mix 0.5 mM epothilone A, 3 mM UDP-glucose, 10 mM MgCl2, Tris-HCl, 400 μg/ml enzyme, no HPLC product peak, Km not determined.

A further series has as its system T3, BcGT-1.
T3 construct: synthetic gene in pET28a, His tag, E. coli BL21(DE3), nickel-purified
In words: UPLC-PDA glycosylation assay, Michaelis-Menten fit. The class given is biochemical, Bacillus cereus. The following applies: 10 mM UDP-glucose, 10 mM MgCl2, Tris-HCl pH 7.5, 37 °C, 10 min; read-out: Acceptor substrate (epothilone A) / K m. The text has this: UPLC-PDA glycosylation assay, Michaelis-Menten fit on BcGT-1

T2 sequence (O05496 whole entry): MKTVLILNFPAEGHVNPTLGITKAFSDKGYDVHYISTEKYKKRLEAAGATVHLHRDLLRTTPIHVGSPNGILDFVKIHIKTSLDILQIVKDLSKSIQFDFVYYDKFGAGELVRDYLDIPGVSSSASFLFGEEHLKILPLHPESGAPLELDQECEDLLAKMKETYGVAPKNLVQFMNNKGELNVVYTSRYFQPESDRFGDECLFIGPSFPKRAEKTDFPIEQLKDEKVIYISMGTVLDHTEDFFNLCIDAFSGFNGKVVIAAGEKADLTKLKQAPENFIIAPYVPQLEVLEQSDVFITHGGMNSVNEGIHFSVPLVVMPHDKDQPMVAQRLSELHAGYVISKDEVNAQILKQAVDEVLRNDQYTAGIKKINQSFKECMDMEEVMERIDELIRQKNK

Regarding BaGT (Bacillus atrophaeus 1942), in series [1], the Km worked out at 113.66 ± 10.55 µM, the turnover number (kcat) (usually the maximal rate divided by the concentration of active sites) was 0.113 ± 0.00417 s⁻¹ and the kcat/Km (commonly the second-order rate constant that governs catalysis at low substrate concentration) came out at 990 M⁻¹ s⁻¹.
In the case of BamGT (Bacillus velezensis FZB42), in series [2], the Km came out at 2245.74 ± 311.96 µM, the catalytic constant (kcat) was 0.0182 ± 0.00117 s⁻¹ and the kcat/Km was determined as 8.33 M⁻¹ s⁻¹.
As for “YojK (Bacillus subtilis subsp. subtilis str. 168)”, in series [3], the Km was 1720.77 ± 161.35 µM, the kcat turned out to be 0.0205 ± 0.00117 s⁻¹ and the kcat/Km was 11.8 M⁻¹ s⁻¹.
With “YjiC (Bacillus licheniformis DSM 13 = ATCC 14580)”, in series [4], the Km stood at 94.58 ± 2.95 µM, the catalytic constant (kcat) came to 0.192 ± 0.00317 s⁻¹ and the catalytic efficiency (kcat/Km) amounted to 2030 M⁻¹ s⁻¹.
Turning to `C/C(=C\c1csc(C)n1)[C@@H]1C[C@@H]2O[C@@H]2CCC[C@H](C)[C@H](O)[C@@H](C)C(=O)C(C)(C)[C@@H](O)CC(=O)O1` [epothilone A], the Km in the series on BssGT stood at 1590 ± 117 µM; with BcGT-1, 1200 ± 215 µM. The “% conversion after 10 h” value on BsGT-2 was determined as 0.03%.
